Experimental data reported in publication PMC9933633.

Target: SARS-CoV-2 Spike RBD (SARS-CoV-2, UniProt P0DTC2 319-541)
Experiment: electrochemical aptasensor

B1: Spike RBD aptamer (51-base, Song et al. 2020) (structured_DNA)
DNA: CAGCACCGACCTTGTGCTTTGGGAGTGCTGGTCCAAGGGCGTTAATGGACA
modifications: 5' C6-NH2
B1: binds.
